One block for each binder: values may come before it.
Columns and labels:
[1] = molecular target: T1, human SIRPα naturally expressed on human renal clear cell adenocarcinoma 786-O cells (human, UniProt P78324 31-504); experiment: FACS on 786-O cells, PE-anti human FC secondary, MFI; unit from the axis Log[Abs,nM]
T1 construct: whole, on cells
Experimental: Blocking: the cells were resuspended with 2% FBS and were seeded into 96-well U bottom plate with 2E5/well, 200 μl/well, then subjected to ice bath for 1 h. Centrifugation was performed at 300 g for 3 min, and the supernatant was discarded. Antibody incubation: 10 μg/ml antibodies for incubation were diluted at 1:3, 100 μl/well, and subjected to ice bath for 1 h. Centrifugation was performed, and the supernatant was discarded. Pre-cooled PBS was added at 200 μl/well, centrifuged at 300 g for 5 min to discard supernatant, which was repeated twice. Secondary antibody: PE-anti human FC (1:200) 50 μl/well was subjected to ice bath for 0.5h. Centrifugation was performed and the supernatant was discarded. Pre-cooled PBS was added at 200 μl/well, centrifuged at 300 g for 5 min to discard supernatant, which was repeated 3 times. The mean fluorescence values were read on FACS.

[2] = molecular target: SIRPα V7 fusion Fc (mouse IgG2a) (human; mouse); experiment: ELISA, plate coated with SIRPα V7-Fc (mouse IgG2a), anti-hFab secondary, OD450
Experimental: (§1) The plate was coated with SIRPα V1/V2/V3/V4/V5/V6/V7/V8/V9/V10 at 1 μg/ml, 60 μl/well overnight at 4° C., and washed twice with PBST; blocked with 5% non-fat milk (Sangon) of 200 μl/well, incubated at room temperature for 1 h, and washed twice with PBST. Antibody was incubated at 10 μg/ml, diluted with 5 times for 10 gradients, 60 μl/well, incubated at room temperature for 1 h, and washed with PBST 5 times. Secondary antibody incubation: anti-hFab 1:10000, 60 μl/well, incubated at room temperature for 1 h, washed with PBST 5 times. Developing: TMB was equilibrated at room temperature for 1 h in advance, 100 μl/well, to develop for 10 min, 2M H₂SO₄ of 50 ul/well was used for termination, and reading was performed at 450 nm on microplate reader.

[3] = molecular target: T2, SIRPα V6 fusion Fc (mouse IgG2a) (human; mouse); experiment: ELISA, plate coated with SIRPα V6-Fc (mouse IgG2a), anti-hFab secondary, OD450
T2 construct: No linker mentioned between SIRPα and Fc
T2 chain: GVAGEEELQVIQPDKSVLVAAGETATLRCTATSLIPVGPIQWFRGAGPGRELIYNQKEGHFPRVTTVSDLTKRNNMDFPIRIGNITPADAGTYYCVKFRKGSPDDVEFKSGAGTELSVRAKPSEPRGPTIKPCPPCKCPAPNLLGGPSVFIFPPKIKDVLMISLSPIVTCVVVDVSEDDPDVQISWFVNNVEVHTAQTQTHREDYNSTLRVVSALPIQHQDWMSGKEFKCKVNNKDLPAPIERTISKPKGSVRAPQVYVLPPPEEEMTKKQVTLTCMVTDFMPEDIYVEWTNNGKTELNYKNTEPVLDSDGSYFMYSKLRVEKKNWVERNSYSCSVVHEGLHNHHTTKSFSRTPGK
Experimental: as §1

[4] = molecular target: T3, SIRPα V9 fusion Fc (mouse IgG2a) (human; mouse); experiment: ELISA, plate coated with SIRPα V9-Fc (mouse IgG2a), anti-hFab secondary, OD450
T3 construct: No linker mentioned between SIRPα and Fc
T3 chain: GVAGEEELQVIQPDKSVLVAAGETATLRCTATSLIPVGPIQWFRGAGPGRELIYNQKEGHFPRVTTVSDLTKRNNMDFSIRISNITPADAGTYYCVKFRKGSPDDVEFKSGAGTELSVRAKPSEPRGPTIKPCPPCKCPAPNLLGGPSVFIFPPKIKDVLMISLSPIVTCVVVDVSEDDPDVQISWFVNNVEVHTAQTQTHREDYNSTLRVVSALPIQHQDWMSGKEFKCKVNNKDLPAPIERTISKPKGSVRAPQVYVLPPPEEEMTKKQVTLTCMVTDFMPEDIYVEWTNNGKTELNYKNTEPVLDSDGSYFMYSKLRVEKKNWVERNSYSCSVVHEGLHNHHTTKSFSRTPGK
Experimental: as §1

[5] = molecular target: SIRPα V8 fusion Fc (mouse IgG2a) (human; mouse); experiment: ELISA, plate coated with SIRPα V8-Fc (mouse IgG2a), anti-hFab secondary, OD450
Experimental: as §1

[6] = molecular target: T4, SIRPα V1 fusion Fc (mouse IgG2a) (human; mouse); experiment: ELISA, plate coated with SIRPα V1-Fc (mouse IgG2a), anti-hFab secondary, OD450
T4 construct: No linker mentioned between SIRPα and Fc
T4 chain: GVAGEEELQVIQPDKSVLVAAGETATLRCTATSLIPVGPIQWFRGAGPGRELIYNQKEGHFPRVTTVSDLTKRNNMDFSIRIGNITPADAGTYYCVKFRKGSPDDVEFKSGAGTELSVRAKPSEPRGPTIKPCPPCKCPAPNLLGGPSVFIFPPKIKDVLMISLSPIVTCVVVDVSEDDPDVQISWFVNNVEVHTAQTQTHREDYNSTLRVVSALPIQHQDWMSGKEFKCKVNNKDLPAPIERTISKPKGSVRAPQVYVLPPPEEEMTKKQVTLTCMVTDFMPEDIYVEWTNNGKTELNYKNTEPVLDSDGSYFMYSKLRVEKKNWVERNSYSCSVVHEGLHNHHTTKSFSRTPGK
Experimental: as §1

[7] = molecular target: SIRPα V10 fusion Fc (mouse IgG2a) (human; mouse); experiment: ELISA, plate coated with SIRPα V10-Fc (mouse IgG2a), anti-hFab secondary, OD450
Experimental: as §1

[8] = molecular target: T5, SIRPα V2 fusion Fc (mouse IgG2a) (human; mouse); experiment: ELISA, plate coated with SIRPα V2-Fc (mouse IgG2a), anti-hFab secondary, OD450
T5 construct: No linker mentioned between SIRPα and Fc
Experimental: as §1

[9] = molecular target: T6, SIRPα V4 fusion Fc (mouse IgG2a) (human; mouse); experiment: ELISA, plate coated with SIRPα V4-Fc (mouse IgG2a), anti-hFab secondary, OD450
T6 construct: No linker mentioned between SIRPα and Fc
T6 chain: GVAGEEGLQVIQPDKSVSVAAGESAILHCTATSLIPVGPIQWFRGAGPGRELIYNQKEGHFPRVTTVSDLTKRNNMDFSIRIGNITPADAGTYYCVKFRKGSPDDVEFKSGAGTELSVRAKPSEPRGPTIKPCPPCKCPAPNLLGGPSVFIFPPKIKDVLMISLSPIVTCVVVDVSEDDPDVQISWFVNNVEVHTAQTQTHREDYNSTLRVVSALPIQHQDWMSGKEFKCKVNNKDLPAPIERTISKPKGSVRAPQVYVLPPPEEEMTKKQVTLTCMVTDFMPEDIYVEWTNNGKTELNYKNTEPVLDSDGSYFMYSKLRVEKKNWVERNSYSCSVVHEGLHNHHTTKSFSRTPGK
Experimental: as §1

T1 sequence (P78324 31-504): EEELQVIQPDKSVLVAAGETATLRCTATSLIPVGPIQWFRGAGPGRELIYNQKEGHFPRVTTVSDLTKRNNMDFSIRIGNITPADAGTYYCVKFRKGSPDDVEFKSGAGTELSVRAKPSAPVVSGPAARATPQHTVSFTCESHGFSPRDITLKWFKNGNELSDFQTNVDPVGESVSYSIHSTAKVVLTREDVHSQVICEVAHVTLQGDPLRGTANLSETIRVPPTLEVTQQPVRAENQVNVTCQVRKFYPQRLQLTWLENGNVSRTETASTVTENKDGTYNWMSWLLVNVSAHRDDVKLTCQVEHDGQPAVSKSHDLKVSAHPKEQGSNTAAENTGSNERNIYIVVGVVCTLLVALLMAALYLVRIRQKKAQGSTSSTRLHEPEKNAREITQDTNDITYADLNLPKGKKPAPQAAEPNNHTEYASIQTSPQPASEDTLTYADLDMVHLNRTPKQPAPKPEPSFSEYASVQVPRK

B2: QP256253 (humanized anti-SIRPα antibody, QP163164 humanized clone) (antibody, human IgG4, V domains shown)
VH: QVQLVQSGAEVKKPGASVKVSCKASGYTFTNYWINWVRQAPGQGLEWIAMIDPSDSETHYNQIFKDRATLTTDTSTSTAYMELRSLRSDDTAVYYCAMDYGSLYAMDYWGRGTLVTVSS
VL: DIVLTQSPDSLAVSLGERATINCRASKSVSSSGYNYIFWYQQKPGQPPKLLIYLASNLDSGVPDRFSGSGSGTDFTLTISSLQAEDVAVYYCQHSRELPTFGQGTKLEIK
EC50 [1]: 0.204 nM

B4: QP2561586 (affinity-matured humanized anti-SIRPα antibody) (antibody, IgG4, V domains shown)
VH: QVQLVQSGAEVKKPGASVKVSCKASGYTFTNYWINWVRQAPGQGLEWIAMIDPSDSETHYNQIFKDRATLTTDTSTSTAYMELRSLRSDDTAVYYCAMDYGSLYAMDYWGRGTLVTVSS
VL: DIVLTQSPDSLAVSLGERATINCRASKSVSSSGYNYIFWYQQKPGQPPKLLIYLASNLDSGVPDRFSGSGSGTDFTLTISSLQAEDVAVYYCQESRELPTFGQGTKLEIK
notes: hIgG4 constant region, kappa CL
EC50 [1]: 0.217 nM

B5: QP256279 (affinity-matured humanized anti-SIRPα antibody) (antibody, IgG4, V domains shown)
VH: QVQLVQSGAEVKKPGASVKVSCKASGYTFTNYWINWVRQAPGQGLEWIAMIDPSDSETHYNQIFKDRATLTTDTSTSTAYMELRSLRSDDTAVYYCAMDYGSLYAMDYWGRGTLVTVSS
VL: DIVLTQSPDSLAVSLGERATINCRASQSVRSSGYNWIFWYQQKPGQPPKLLIYLASNRDSGVPDRFSGSGSGTDFTLTISSLQAEDVAVYYCQHSRELPTFGQGTKLEIK
notes: full-length IgG with hIgG4 constant region and kappa CL; also called CHO71 (QP256279 stably expressed in CHOS cells)
EC50 (read off the curve) [7]: ~0.07 nM | EC50 (read off the curve) [8]: ~0.07 nM | EC50 (read off the curve) [9]: ~0.06 nM | EC50 (read off the curve) [2]: ~0.07 nM | EC50 (read off the curve) [6]: ~0.08 nM

Continued by falling EC50 [1], values first:

EC50 [1]: 0.245 nM | EC50 (read off the curve) [2]: ~0.1 nM | EC50 (read off the curve) [3]: ~0.1 nM | EC50 (read off the curve) [4]: ~0.2 nM | EC50 (read off the curve) [5]: ~0.2 nM | EC50 (read off the curve) [6]: ~0.2 nM
B1: QP026249 (control antibody, variable regions of KWAR23, human IgG4/kappa) (antibody)
light: QIVLTQSPAIMSASPGEKVTLTCSASSSVSSSYLYWYQQKPGSSPKLWIYSTSNLASGVPARFSGSGSGTSYSLTISSMEAEDAASYFCHQWSSYPRTFGAGTKLELKRTVAAPSVFIFPPSDEQLKSGTASVVCLLNNFYPREAKVQWKVDNALQSGNSQESVTEQDSKDSTYSLSSTLTLSKADYEKHKVYACEVTHQGLSSPVTKSFNRGEC
heavy: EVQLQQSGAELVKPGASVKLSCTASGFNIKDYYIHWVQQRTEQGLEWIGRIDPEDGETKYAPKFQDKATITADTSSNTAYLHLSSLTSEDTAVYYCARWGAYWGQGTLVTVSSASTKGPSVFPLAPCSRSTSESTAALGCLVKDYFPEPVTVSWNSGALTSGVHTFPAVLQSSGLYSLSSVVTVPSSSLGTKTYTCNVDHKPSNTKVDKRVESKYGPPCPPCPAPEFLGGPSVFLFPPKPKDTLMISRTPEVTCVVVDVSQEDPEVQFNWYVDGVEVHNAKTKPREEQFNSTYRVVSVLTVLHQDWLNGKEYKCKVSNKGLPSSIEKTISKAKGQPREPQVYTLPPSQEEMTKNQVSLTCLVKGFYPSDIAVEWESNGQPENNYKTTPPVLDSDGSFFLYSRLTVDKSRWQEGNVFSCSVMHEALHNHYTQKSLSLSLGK
notes: also called KWAR23 (QP026249)

EC50 [1]: 0.188 nM
B3: QP2561589 (affinity-matured humanized anti-SIRPα antibody) (antibody, IgG4, V domains shown)
VH: QVQLVQSGAEVKKPGASVKVSCKASGYTFTNYWINWVRQAPGQGLEWIAMIDPSDSETHYNQIFKDRATLTTDTSTSTAYMELRSLRSDDTAVYYCAMDYGSLYAMDYWGRGTLVTVSS
VL: DIVLTQSPDSLAVSLGERATINCRASKSVSSSGYNYIFWYQQKPGQPPKLLIYLASNLDSGVPDRFSGSGSGTDFTLTISSLQAEDVAVYYCQESWELPTFGQGTKLEIK
notes: as for B4

From patent publication US20240018255A1 (QURE BIOTECHNOLOGY SHANGHAI, published 2024)
